Article PMC11761706

Molecular target: T1, Loz1AZZ (Schizosaccharomyces pombe, UniProt Q9UTA1 426-522)
T1 sequence: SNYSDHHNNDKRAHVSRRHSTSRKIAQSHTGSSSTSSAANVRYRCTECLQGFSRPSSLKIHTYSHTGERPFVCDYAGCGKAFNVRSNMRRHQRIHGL
Assay: NMR

B1: LRE DNA 14 bp (dsDNA)
DNA 1: GCGACGATCATTGG
DNA 2: CCAATGATCGTCGC
binding result: binds
